Numbered stars: 1 amine (or outer) side, 2 acyl side, 3 side chain; on linkers, the order of the positions; unused ones are H or OH. Bridge positions count the residues as written; N and C are the ends. Side chains are listed from the residue outwards. Ends that are not written are not given here. * marks the point of attachment. C20 diacid = O=C(O)CCCCCCCCCCCCCCCCCCC(=O)*; γGlu = O=C(O)[C@H](CCC(=O)[*:2])N[*:1]; AEEA = NCCOCCOCC(=O)O
T1: human calcitonin receptor (human, UniProt P30988 25-474)
T1 construct: whole, on cells; Used as membranes prepared from a BHK tk'ts 13 cell line stably transfected with the human calcitonin receptor (Assay VII); also called hCTR; hCT
T1 sequence (looked up): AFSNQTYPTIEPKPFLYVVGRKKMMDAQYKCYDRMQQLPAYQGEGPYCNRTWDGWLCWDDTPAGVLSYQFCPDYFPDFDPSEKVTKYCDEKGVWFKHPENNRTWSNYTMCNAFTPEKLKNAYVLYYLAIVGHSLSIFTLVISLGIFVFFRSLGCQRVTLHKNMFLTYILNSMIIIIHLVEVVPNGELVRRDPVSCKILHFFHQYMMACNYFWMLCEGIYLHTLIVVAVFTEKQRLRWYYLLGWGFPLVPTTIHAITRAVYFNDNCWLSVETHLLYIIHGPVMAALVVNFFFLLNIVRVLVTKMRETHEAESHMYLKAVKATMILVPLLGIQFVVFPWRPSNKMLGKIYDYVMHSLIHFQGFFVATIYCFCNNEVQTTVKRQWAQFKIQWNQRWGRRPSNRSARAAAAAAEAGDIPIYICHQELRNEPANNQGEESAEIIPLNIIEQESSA

T2: rat amylin receptor (rat calcitonin receptor + rat RAMP 3) (rat, UniProt P32214 25-516; Q9JJ73 23-147)
T2 construct: whole, on cells; Used as membranes prepared from BHK tk'ts 13 cells transiently transfected with rat calcitonin receptor and rat RAMP 3 (Assay VI); also called rAmylin-R; rat amylin 3(a) receptor
T2 sequence (looked up) 1: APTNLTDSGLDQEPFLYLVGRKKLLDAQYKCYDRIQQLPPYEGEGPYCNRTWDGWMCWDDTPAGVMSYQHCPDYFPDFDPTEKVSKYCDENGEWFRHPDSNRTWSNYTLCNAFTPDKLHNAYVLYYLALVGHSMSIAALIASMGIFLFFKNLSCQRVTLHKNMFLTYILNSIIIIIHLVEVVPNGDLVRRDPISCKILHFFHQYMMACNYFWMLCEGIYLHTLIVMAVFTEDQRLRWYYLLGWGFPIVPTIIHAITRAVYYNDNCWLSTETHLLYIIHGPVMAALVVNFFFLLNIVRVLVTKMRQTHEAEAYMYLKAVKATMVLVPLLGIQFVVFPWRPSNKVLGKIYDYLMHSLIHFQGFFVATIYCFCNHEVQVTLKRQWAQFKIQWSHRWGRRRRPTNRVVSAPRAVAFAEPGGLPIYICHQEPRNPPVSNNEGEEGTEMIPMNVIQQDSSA
T2 sequence (looked up) 2: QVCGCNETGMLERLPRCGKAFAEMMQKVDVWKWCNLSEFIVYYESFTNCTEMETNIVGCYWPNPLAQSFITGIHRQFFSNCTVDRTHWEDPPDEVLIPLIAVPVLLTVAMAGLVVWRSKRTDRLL

T3: rat calcitonin receptor (rat, UniProt P32214 25-516)
T3 construct: whole, on cells; Used as membranes prepared from BHK tk'ts 13 cells transiently transfected with the rat calcitonin receptor (Assay VIII); also called rCTR; rat calcitonin (a) receptor
T3 sequence (looked up): T2 sequence (looked up) 1

B1: N^ε1-[2-[2-[2-[[(4S)-4-carboxy-4-(19-carboxynonadecanoylamino)butanoyl]amino]ethoxy]ethoxy]acetyl]-[Arg14,Arg17,Pro21,Pro27,Pro31]-h-amylin (peptide)
peptide: K([AEEA-γGlu-C20 diacid])CNTATCATQRLARFLRHSSPNFGAIPSSTPVGSNTY-NH2
modifications: disulfide 2-7; N-terminus assumed
SMILES: CC[C@H](C)[C@H](NC(=O)[C@H](C)NC(=O)CNC(=O)[C@H](Cc1ccccc1)NC(=O)[C@H](CC(N)=O)NC(=O)[C@@H]1CCCN1C(=O)[C@H](CO)NC(=O)[C@H](CO)NC(=O)[C@H](Cc1c[nH]cn1)NC(=O)[C@H](CCCNC(=N)N)NC(=O)[C@H](CC(C)C)NC(=O)[C@H](Cc1ccccc1)NC(=O)[C@H](CCCNC(=N)N)NC(=O)[C@H](C)NC(=O)[C@H](CC(C)C)NC(=O)[C@H](CCCNC(=N)N)NC(=O)[C@H](CCC(N)=O)NC(=O)[C@@H](NC(=O)[C@H](C)NC(=O)[C@@H]1CSSC[C@H](NC(=O)[C@@H](N)CCCCNC(=O)COCCOCCNC(=O)CC[C@H](NC(=O)CCCCCCCCCCCCCCCCCCC(=O)O)C(=O)O)C(=O)N[C@@H](CC(N)=O)C(=O)N[C@@H]([C@@H](C)O)C(=O)N[C@@H](C)C(=O)N[C@@H]([C@@H](C)O)C(=O)N1)[C@@H](C)O)C(=O)N1CCC[C@H]1C(=O)N[C@@H](CO)C(=O)N[C@@H](CO)C(=O)N[C@H](C(=O)N1CCC[C@H]1C(=O)N[C@H](C(=O)NCC(=O)N[C@@H](CO)C(=O)N[C@@H](CC(N)=O)C(=O)N[C@H](C(=O)N[C@@H](Cc1ccc(O)cc1)C(N)=O)[C@@H](C)O)C(C)C)[C@@H](C)O
notes: Analogue of human amylin; also called compound 64
B2: N^ε1-[2-[2-[2-[[(4S)-4-carboxy-4-(19-carboxynonadecanoylamino)butanoyl]amino]ethoxy]ethoxy]acetyl]-[Arg17,Pro21,Pro27,Arg34]-h-amylin (peptide)
peptide: K([AEEA-γGlu-C20 diacid])CNTATCATQRLANFLRHSSPNFGAIPSSTNVGRNTY-NH2
modifications: disulfide 2-7; N-terminus assumed
SMILES: CC[C@H](C)[C@H](NC(=O)[C@H](C)NC(=O)CNC(=O)[C@H](Cc1ccccc1)NC(=O)[C@H](CC(N)=O)NC(=O)[C@@H]1CCCN1C(=O)[C@H](CO)NC(=O)[C@H](CO)NC(=O)[C@H](Cc1c[nH]cn1)NC(=O)[C@H](CCCNC(=N)N)NC(=O)[C@H](CC(C)C)NC(=O)[C@H](Cc1ccccc1)NC(=O)[C@H](CC(N)=O)NC(=O)[C@H](C)NC(=O)[C@H](CC(C)C)NC(=O)[C@H](CCCNC(=N)N)NC(=O)[C@H](CCC(N)=O)NC(=O)[C@@H](NC(=O)[C@H](C)NC(=O)[C@@H]1CSSC[C@H](NC(=O)[C@@H](N)CCCCNC(=O)COCCOCCNC(=O)CC[C@H](NC(=O)CCCCCCCCCCCCCCCCCCC(=O)O)C(=O)O)C(=O)N[C@@H](CC(N)=O)C(=O)N[C@@H]([C@@H](C)O)C(=O)N[C@@H](C)C(=O)N[C@@H]([C@@H](C)O)C(=O)N1)[C@@H](C)O)C(=O)N1CCC[C@H]1C(=O)N[C@@H](CO)C(=O)N[C@@H](CO)C(=O)N[C@H](C(=O)N[C@@H](CC(N)=O)C(=O)N[C@H](C(=O)NCC(=O)N[C@@H](CCCNC(=N)N)C(=O)N[C@@H](CC(N)=O)C(=O)N[C@H](C(=O)N[C@@H](Cc1ccc(O)cc1)C(N)=O)[C@@H](C)O)C(C)C)[C@@H](C)O
notes: Analogue of human amylin; also called compound 78
B3: N^ε1-[2-[2-[2-[[(4S)-4-carboxy-4-(19-carboxynonadecanoylamino)butanoyl]amino]ethoxy]ethoxy]acetyl]-[Arg14,Arg17,Pro21,Pro27]-h-amylin (peptide)
peptide: K([AEEA-γGlu-C20 diacid])CNTATCATQRLARFLRHSSPNFGAIPSSTNVGSNTY-NH2
modifications: disulfide 2-7; N-terminus assumed
SMILES: CC[C@H](C)[C@H](NC(=O)[C@H](C)NC(=O)CNC(=O)[C@H](Cc1ccccc1)NC(=O)[C@H](CC(N)=O)NC(=O)[C@@H]1CCCN1C(=O)[C@H](CO)NC(=O)[C@H](CO)NC(=O)[C@H](Cc1c[nH]cn1)NC(=O)[C@H](CCCNC(=N)N)NC(=O)[C@H](CC(C)C)NC(=O)[C@H](Cc1ccccc1)NC(=O)[C@H](CCCNC(=N)N)NC(=O)[C@H](C)NC(=O)[C@H](CC(C)C)NC(=O)[C@H](CCCNC(=N)N)NC(=O)[C@H](CCC(N)=O)NC(=O)[C@@H](NC(=O)[C@H](C)NC(=O)[C@@H]1CSSC[C@H](NC(=O)[C@@H](N)CCCCNC(=O)COCCOCCNC(=O)CC[C@H](NC(=O)CCCCCCCCCCCCCCCCCCC(=O)O)C(=O)O)C(=O)N[C@@H](CC(N)=O)C(=O)N[C@@H]([C@@H](C)O)C(=O)N[C@@H](C)C(=O)N[C@@H]([C@@H](C)O)C(=O)N1)[C@@H](C)O)C(=O)N1CCC[C@H]1C(=O)N[C@@H](CO)C(=O)N[C@@H](CO)C(=O)N[C@H](C(=O)N[C@@H](CC(N)=O)C(=O)N[C@H](C(=O)NCC(=O)N[C@@H](CO)C(=O)N[C@@H](CC(N)=O)C(=O)N[C@H](C(=O)N[C@@H](Cc1ccc(O)cc1)C(N)=O)[C@@H](C)O)C(C)C)[C@@H](C)O
notes: Analogue of human amylin; also called compound 82

Target: T1, human calcitonin receptor
Assay: IC50 on human CTR divided by IC50 on human amylin receptor (Assays VII/V)
Description: The resulting pellet was resuspended, homogenized and centrifuged (20.000 rpm, 15 min) in a buffer containing 20 mM Na-HEPES and 0.1 mM EDTA (pH 7.4, buffer 2). The resulting pellet was resuspended in buffer 2 and protein concentration was measured (BCA protein Assay, Pierce). The homogenate was kept cold during the whole procedure. The membranes were kept at −80° C. until use. The assay was performed in a 384 well Optiplate (PerkinElmer) in a total volume of 40 ul. Membranes were mixed with SPA beads. Final concentration of membranes 35 ng/μL final and SPA beads was 0.05 mg/well. Test-compounds were dissolved in DMSO and further diluted in assay buffer (50 mM Hepes, pH 7.4, 1 mM CaCl2, 5 mM MgCl₂, 0.1% OA and 0.02% Tween20). […] The final mixture was incubated with shaking at 400 rpm for 120 min at 25° C. prior to centrifugation (1500 rpm, 10 min). Samples were analyzed on TopCounter™ (Packard). The IC₅₀ was calculated using (one site binding competition analysis) GraphPad Prism5 as a measure of receptor affinity.
Membranes were prepared in the following way; the cells were rinsed with PBS and incubated with Versene for approximately 5 min before harvesting. The cells were flushed with PBS and the cell-suspension was centrifuged for 5 min at 1000 rpm. Cells were homogenized (Ultrathurrax) in a buffer containing 20 mM Na-HEPES and 10 mM EDTA (pH 7.4) and centrifuged at 20.000 rpm for 15 min. The resulting pellet was resuspended, homogenized and centrifuged (20.000 rpm, 15 min) in a buffer containing 20 mM Na-HEPES and 0.1 mM EDTA (pH 7.4, buffer 2). The resulting pellet was resuspended in buffer 2 and protein concentration was measured (BCA protein Assay, Pierce). The homogenate was kept cold during the whole procedure. The membranes were kept at −80° C. until use. Assay was performed in a 384 well Optiplate (PerkinElmer) in a total volume of 40 ul. Membranes were mixed with SPA beads.

Row | Binder | Ratio hCT/hAmylin binding
1 | B1 | 126
2 | B2 | 60.7
3 | B3 | 140

Target: T2, rat amylin receptor (rat calcitonin …)
Assay: SPA competition with 125I-rat amylin, membranes of BHK cells with rat CTR + rat RAMP3 (Assay VI)
Description: The binding assay was performed using scintillation proximity assay (SPA) beads (RPNQ0001) from PerkinElmer and cell membranes from the Amylin 3(a)/CRE-luc cells (as described in Assay (II)) were used. Membranes were prepared in the following way; the cells were rinsed with PBS and incubated with Versene for approximately 5 min before harvesting. The cells were flushed with PBS and the cell-suspension was centrifuged for 5 min at 1000 rpm. Cells were homogenized (ultrathurrax) in a buffer containing 20 mM Na-HEPES and 10 mM EDTA (pH 7.4) and centrifuged at 20.000 rpm for 15 min. The resulting pellet was resuspended, homogenized and centrifuged (20.000 rpm, 15 min) in a buffer containing 20 mM Na-HEPES and 0.1 mM EDTA (pH 7.4, buffer 2). The resulting pellet was resuspended in buffer 2 and protein concentration was measured (BCA protein Assay, Pierce). The homogenate was kept cold during the whole procedure. The membranes were kept at −80° C. until use. The assay was performed in a 384 well Optiplate (PerkinElmer) in a total volume of 40 ul. Membranes were mixed with SPA beads. Final concentration of membranes 35 ng/μL final and SPA beads was 0.05 mg/well. Test-compounds were dissolved in DMSO and further diluted in assay buffer (50 mM Hepes, pH 7.4, 1 mM CaCl2, 5 mM MgCl₂, 0.1% OA and 0.02% Tween20). […] The final mixture was incubated with shaking at 400 rpm for 120 min at 25° C. prior to centrifugation (1500 rpm, 10 min). Samples were analyzed on TopCounter™ (Packard). The IC₅₀ was calculated using (one site binding competition analysis) GraphPad Prism5 as a measure of receptor affinity.
Cells were grown in DMEM with 10% FBS and 1% Pen/Strep. Approximately 48 hours after transfection, the cells were harvested and membranes were prepared.

Row | Binder | IC50 [nM]
4 | B1 | 1.97
5 | B2 | 1.3
6 | B3 | 1.64

Target: T3, rat calcitonin receptor
Assay: IC50 on rat CTR divided by IC50 on rat amylin receptor (Assays VIII/VI)

Row | Binder | Ratio rCT/rAmylin binding
7 | B1 | 64.7
8 | B2 | 69.9
9 | B3 | 87

Target: T3, rat calcitonin receptor
Assay: SPA competition with 125I-calcitonin, membranes of BHK cells with rat CTR (Assay VIII)

Row | Binder | IC50 [nM]
10 | B1 | 128
11 | B2 | 90.6
12 | B3 | 143

— patent publication US20140087995A1 (published 2014)
